In IntAct's records for PubMed 19918049:

B1: Serine/threonine-protein kinase haspin (Homo sapiens), Q8TF76-1 (parent)
chain: MAASLPGPGSRLFRTYGAADGRRQRRPGREAAQWFPPQDRRRFFNSSGSSDASIGDPSQSDDPDDPDDPDFPGSPVRRRRRRPGGRVPKDRPSLTVTPKRWKLRARPSLTVTPRRLGLRARPPQKCSTPCGPLRLPPFPSRDSGRLSPDLSVCGQPRDGDELGISASLFSSLASPCPGSPTPRDSVISIGTSACLVAASAVPSGLHLPEVSLDRASLPCSQEEATGGAKDTRMVHQTRASLRSVLFGLMNSGTPEDSEFRADGKNMRESCCKRKLVVGNGPEGPGLSSTGKRRATGQDSCQERGLQEAVRREHQEASVPKGRIVPRGIDRLERTRSSRKSKHQEATETSLLHSHRFKKGQKLGKDSFPTQDLTPLQNVCFWTKTRASFSFHKKKIVTDVSEVCSIYTTATSLSGSLLSECSNRPVMNRTSGAPSSWHSSSMYLLSPLNTLSISNKKASDAEKVYGECSQKGPVPFSHCLPTEKLQRCEKIGEGVFGEVFQTIADHTPVAIKIIAIEGPDLVNGSHQKTFEEILPEIIISKELSLLSGEVCNRTEGFIGLNSVHCVQGSYPPLLLKAWDHYNSTKGSANDRPDFFKDDQLFIVLEFEFGGIDLEQMRTKLSSLATAKSILHQLTASLAVAEASLRFEHRDLHWGNVLLKKTSLKKLHYTLNGKSSTIPSCGLQVSIIDYTLSRLERDGIVVFCDVSMDEDLFTGDGDYQFDIYRLMKKENNNRWGEYHPYSNVLWLHYLTDKMLKQMTFKTKCNTPAMKQIKRKIQEFHRTMLNFSSATDLLCQHSLFK

Variants of: B1
Conditions: with h32_mouse H3c13, P84228

Row | Variant | effect of a mutation on the interaction
1 | E492A | decreasing interaction
2 | D707L | decreasing interaction
3 | G713F | decreasing interaction
4 | H651A | decreasing interaction
5 | D709N | decreasing interaction
